The values below are quoted from earlier work in article PMC6995517.

The target of this data set is transferrin receptor (TfR) (Homo sapiens) (UniProt P02786).
Sequence of transferrin receptor (TfR) (Homo sapiens) (P02786 89-760): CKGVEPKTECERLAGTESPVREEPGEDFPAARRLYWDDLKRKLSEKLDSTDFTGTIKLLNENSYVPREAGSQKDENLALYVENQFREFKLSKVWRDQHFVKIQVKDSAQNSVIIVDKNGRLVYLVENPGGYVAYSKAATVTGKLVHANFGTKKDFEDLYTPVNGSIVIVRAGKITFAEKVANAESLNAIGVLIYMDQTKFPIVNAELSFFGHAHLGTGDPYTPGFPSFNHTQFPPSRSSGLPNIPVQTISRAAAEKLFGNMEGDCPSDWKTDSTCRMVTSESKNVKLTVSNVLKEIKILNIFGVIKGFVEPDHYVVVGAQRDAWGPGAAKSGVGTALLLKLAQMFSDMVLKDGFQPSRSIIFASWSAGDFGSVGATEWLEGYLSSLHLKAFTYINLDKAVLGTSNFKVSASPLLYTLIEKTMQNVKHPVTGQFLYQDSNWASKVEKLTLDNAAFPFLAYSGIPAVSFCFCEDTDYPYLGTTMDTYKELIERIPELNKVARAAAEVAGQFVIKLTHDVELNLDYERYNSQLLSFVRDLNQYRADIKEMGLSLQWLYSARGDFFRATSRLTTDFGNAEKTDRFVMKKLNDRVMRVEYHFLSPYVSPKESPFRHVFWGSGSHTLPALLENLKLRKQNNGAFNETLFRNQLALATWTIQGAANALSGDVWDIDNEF

With T7 peptide, the Kd is 10 nM.
